From patent US20100111916A1 come the findings set out here.

Common to all, as to assay: cell-based or functional assay
Test [1] has as its target CD80 (mouse) (UniProt Q00609).
Test [2] addresses H-2K^b/OVAI peptide complex (mouse).
Test [3] concerns the target CD54 (mouse) (UniProt P13597).
Sequence of UniProt P13597 (P13597 28-537): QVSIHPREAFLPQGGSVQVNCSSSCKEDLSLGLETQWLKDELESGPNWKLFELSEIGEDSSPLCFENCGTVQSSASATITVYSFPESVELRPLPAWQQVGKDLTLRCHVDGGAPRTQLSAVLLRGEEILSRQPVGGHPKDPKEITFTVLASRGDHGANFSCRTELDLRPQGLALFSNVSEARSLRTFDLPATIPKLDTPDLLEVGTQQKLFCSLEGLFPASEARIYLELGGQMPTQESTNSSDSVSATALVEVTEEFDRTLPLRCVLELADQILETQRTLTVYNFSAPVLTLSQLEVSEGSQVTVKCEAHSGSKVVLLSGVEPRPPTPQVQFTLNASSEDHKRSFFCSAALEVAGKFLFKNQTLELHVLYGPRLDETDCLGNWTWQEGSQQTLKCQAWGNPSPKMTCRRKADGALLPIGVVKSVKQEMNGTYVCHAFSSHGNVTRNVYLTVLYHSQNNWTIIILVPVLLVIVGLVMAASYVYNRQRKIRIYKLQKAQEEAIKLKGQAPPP

Sequence of UniProt Q00609 (Q00609 38-306): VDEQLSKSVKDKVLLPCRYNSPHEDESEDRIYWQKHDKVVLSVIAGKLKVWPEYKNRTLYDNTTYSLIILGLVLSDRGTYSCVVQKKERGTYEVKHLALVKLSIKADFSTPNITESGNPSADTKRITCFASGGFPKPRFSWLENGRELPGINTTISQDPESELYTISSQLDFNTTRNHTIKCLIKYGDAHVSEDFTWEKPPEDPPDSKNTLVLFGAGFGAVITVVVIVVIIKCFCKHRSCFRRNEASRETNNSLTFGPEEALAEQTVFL

In test [1], “CD28 (from UniProt P31041 20-218) (receptor)” returned an inhibition of Th-APC-stimulated OT I CD8^+ T cell proliferative response by CTLA-4/Ig fusion protein (15 µg/ml) of 58%, an inhibition of aTEXO-stimulated OT I CD8^+ T cell proliferative response by CTLA-4/Ig (10 µg/ml) of 49% and an inhibition of mDCEXO-stimulated OT I CD8^+ T cell proliferative response by CTLA-4/Ig (10 µg/ml) of 56%.
In test [2], OVA-specific TCR of OT I CD8^+ T cells returned an inhibition of Th-APC-stimulated OT I CD8^+ T cell proliferative response by anti-MHC class I Ab (15 µg/ml) of 38%, an inhibition of aTEXO-stimulated OT I CD8^+ T cell proliferative response by anti-H-2K^b Ab (10 µg/ml) of 49% and an inhibition of mDCEXO-stimulated OT I CD8^+ T cell proliferative response by anti-MHC class I Ab (10 µg/ml) of 62%.
In test [3], “LFA-1 (from UniProt P24063 24-1162; P11835 24-771) (receptor)” had an inhibition of Th-APC-stimulated OT I CD8^+ T cell proliferative response by anti-LFA-1 Ab (15 µg/ml) of 50%, an inhibition of aTEXO-stimulated OT I CD8^+ T cell proliferative response by anti-LFA-1 Ab (10 µg/ml) of 52% and an inhibition of mDCEXO-stimulated OT I CD8^+ T cell proliferative response by anti-LFA-1 Ab (10 µg/ml) of 49%.
